{"source": "the DeepSol protein solubility set", "data": [{"test": "soluble on expression in E. coli; label from the status in PepcDB or PDB records", "values": [{"sequence": "MSSAENIKESGKAKKQKNGNKNNNKKPSAEAIPLKNSPRNKLKKRGSMEQLSEQISEVFTIEMNNDQATVEEPTDTTVRINPADPSSPKVSTSEPKVTVPEPPPTHYAPVVVFIDHLSWPIFLHFVIVNRNMIITKVGRSFLTSLMPGDQISGVDSTPIWCIEDLEHEIQSKPARSVNLTVNRVWNIKCLTNIQLERILPQTDERLQYFMVHVYCSNGTGGLKLYSDKKRVLVQHIRAKTPICHALLVGDQILAINDEFLIGKPKKSLRRHAYDSIKKSFKTKGFAEIIACRPIGARSSPAPSVDAELSGKFANYACGVEKGNKLERKVTDETNNLPLEADALEIALRELTFLQQWVKQDFEEAPCEKGKSLLILKPPFENAKPYEYPPFVVNHQTQLVSAKALSSPVTNTPVAHSPPQALPNKTIIVPVGSTSSVLVPSTTSNALPPVLSLNSQSLSVKTLSMAPQVSQVEPPTSVMNGPTEAADLHVAVPPSPNTPRKRSIFKYKQEKGQTPEHQTTISFVEQPETSKITSDISEDEELKKCDPRSGIVAFIKNKFN", "soluble on expression in E. coli": "not soluble"}, {"sequence": "MSSASELMRCSGRWTLFRRTLPRLRKCVGVGETSGREKPPNSPNSSTLPMMTKTELSPPQIHINFIFFLPKNVFILKNCSL", "soluble on expression in E. coli": "not soluble"}, {"sequence": "MSSDIQQIRIGLTNNHPCSYLADRMERVAVAIDPQMQTPETYEVLMANGFRRSGDTIYKPHCDHCQSCQALRIPAPDFVPSKSQKRLLKLLSQEFHWQLKPELDEDWYTLYARYIFARHRHGSMYPPNKMEFAKFARAKWLNTQYLHLYQGEKLVAIAVTDLLPNSASAFYTFYDPDISISLGTLAVLCQLNYCQQTKKQWLYLGYQIDECPAMNYKVRFNPHQRLVNQRWRGLEHHHHHH", "soluble on expression in E. coli": "soluble"}, {"sequence": "MSSDMRVHSWSCSYYLDLEKQWVSGKLTLTPHSLKFIVEKTEEVLVGLPLSSIIEIRKESSLFIFGAITVLEKGQTKHWFSSLQPSRNVVFNVIEHFWRELLLSQPGTAANIPSHVTRGQELIGLMANSQKRMEDTAKDLQQQSEQLDSVLKGLEKMESDLDVADRLLTELETPSWWPFGSKFWKMPAEENLKEGVSSTCEPFGKEGVVITVPAIISERAESHSKLGKLTVLVSALEIYDSCSLLLHRFEKEDVDDIKVHSPYEVSIRQRFIGKPDVAYQLISAKMPEVIPILEVQFSSKIELLEDALVLRNKVFASSAERHAASRPKGCTPHRELPTGGQEGEQLQLQKNLPLFSEGEAQELTQILSKMKGLALDTEAELERQDAALDGITVAVDRATLNVDKQNRRMRKLM", "soluble on expression in E. coli": "not soluble"}, {"sequence": "MSSETITVERSGKVHHAEGDAARLDAYIPSECPQNHAANLLHLPNGDVLCVWFGGTQEGIADISIYMSRLVKDSGSWSKAAKLSEDATRSEQNPVLFLAPDNVLWLLYTAQKSGNQDTAIVRYRQSTDLGATWGEIGTLLDQPGTFIRQPITVLENGDWLLPVFYCRVQPGEKWVGNDDDSAVKISSDQGKTWREYPVPNSTGCVHMNITPLQDGTLLALYRSRWADFIYQSRSTDGGKTWSEPVATDLPNNNSSIQVTTLKNGHLALVFNHMSAADATDRRLSLYDEIEDEEDKASGAKMPEVQAGDRSAFWGAPRAPMTLAISEDGGKSWPYQRNIEVGDGYCMTNNSTEKLNREFSYPSVKQAPDGKLHVAFTYFRQAIKHVVVSEEWVKAGLEHHHHHH", "soluble on expression in E. coli": "not soluble"}, {"sequence": "MSSFLFENAAILDGQARELRENQHVLVEANRIIEVSDKPIKSKNSERINVNGMTLMPGLIDAHVHVKATIVNVGRLSDIPVSYLTADAGKFMRQMLMRGFTTVRDAGGADRGLADAVTDGLLIGPRLFVSGLSLSQTGGHGDMRPVTSDSHPITCACLASTQQLGRIADGVDECRRAARDELRKGAHQIKIMAGGGVASPNDPIQNTQYSVEEIRAICEEAAAAHTYVMAHAYVPAAISRAIENGVRTIEHGNLLDAEAAKVMSKHNAFLVPTNVTYRALYKHGKSFGFPEVSIGKLKDVLDVGLSAIEIAKNNGVKIGHGSDLLGECQVYQSDELSIKAEVVGNYEAIRHATEVNAEILNMTGELGVIKENALADILIVDGNPIKDVGFLSNDAKFIPNNNER", "soluble on expression in E. coli": "soluble"}, {"sequence": "MSSGSAGAPALSNNSTNSVAKEKSGNISGDEYLSQEEEVFDGNDIENNETKVYEESLDLDLERSNRQVWLVRLPMFLAEKWRDRNNLHGQELGKIRINKDGSKITLLLNENDNDSIPHEYDLELTKKVVENEYVFTEQNLKKYQQRKKELEADPEKQRQAYLKKQEREEELKKKQQQQKRRNNRKKFNHRVMTDRDGRDRYIPYVKTIPKKTAIVGTVCHECQVMPSMNDPNYHKIVEQRRNIVKLNNKERITTLDETVGVTMSHTGMSMRSDNSNFLKVGREKAKSNIKSIRMPKKEILDYLFKLFDEYDYWSLKGLKERTRQPEAHLKECLDKVATLVKKGPYAFKYTLRPEYKKLKEEERKATLGELADEQTGSAGDNAQGDAEADLEDEIEMEDVV", "soluble on expression in E. coli": "soluble"}, {"sequence": "MSSGYSSLEEDEDFFFTARTSFFRRAPPGKSRSGQPDVEKEKETHNYLSKEEIKEKVHKYNSAVTDKLKMTLNSNGIYTGFIKVQMELCKPAQPSPEPSSGGCMNTLHISSTNTVGEVIEALLRKFLVTESPTKFALYKRCHREDQVYACKLSDREHPLYLRLVAGPRTDTLSFVLREHEIGEWEAFSLPELQNFLRILDKEEDEQLQSLKRRYTAYRQKLEEALGEVWKPG", "soluble on expression in E. coli": "not soluble"}, {"sequence": "MSSIKIECVLPENCRCGESPVWEEVSNSLLFVDIPAKKVCRWDSFTKQVQRVTMDAPVSSVALRQSGGYVATIGTKFCALNWKEQSAVVLATVDNDKKNNRFNDGKVDPAGRYFAGTMAEETAPAVLERHQGALYSLFPDHHVKKYFDQVDISNGLDWSLDHKIFYYIDSLSYSVDAFDYDLQTGQISNRRSVYKLEKEEQIPDGMCIDAEGKLWVACYNGGRVIRLDPVTGKRLQTVKLPVDKTTSCCFGGKNYSEMYVTCARDGMDPEGLLRQPEAGGIFKITGLGVKGIAPYSYAG", "soluble on expression in E. coli": "soluble"}, {"sequence": "MSSKSTKRAKIEDPKDNVFMVEKVLDKRTGKAGRDEFLIQWQGFPESDSSWEPRENLQCVEMLDEFEREFSKREKPIRKRHSQKPEPSEDQADPEEDKDEKKETNQNDKFSLEGKQLKCIVGLTKGPGELHFLCKFSDDTARLLPAKEVNSRYRPFVDAYGEFLKKKMERRHKRISEGKKKRSIEEDDADDEWPEMPPGHRILTTEEHELQRRKESKISQDVEMTEAFQQTAADMLNDMHMAANGDLLSSFPQDFLEDSGDGEVHEAAILSVFDDNSNSPPPCPIVVDTVPDDDDSLLFPRNS", "soluble on expression in E. coli": "soluble"}, {"sequence": "MSSLADLINLDLSDSTDQIIAEYIWIGGSGLDMRSKARTLPGPVTDPSQLPKWNYDGSSTGQAPGDDSEVIIYPQAIFKDPFRRGNNILVMCDAYTPAGEPIPTNKRHAAAKIFEDPSVVAEETWYGIEQEYTLLQKDIKWPVGWPVGGFPGPQGPYYCGVGADKAFGRDIVDSHYKACLYAGINVSGTNGEVMPGQWEFQVGPTVGIAAADQVWVARYILERITELAGVVLSLDPKPIPGDWNGAGAHTNYSTKSMREDGGYEVIKKAIEKLGLRHKEHIAAYGEGNERRLTGKHETADINTFLWGVANRGASIRVGRDTEQAGKGYFEDRRPASNMDPYTVTSMIAESTILWKP", "soluble on expression in E. coli": "soluble"}, {"sequence": "MSSNYVMATKEGQMLLTQGKPMLDKDTGLLSYTDEQGNQKQINSDQVSQIVQRLEHHHHHH", "soluble on expression in E. coli": "not soluble"}, {"sequence": "MSSPRHVFYISDRTGLTAENIGEALLNQFGNLSFKRHTHPFVDTPEKARAVVEKVNRSRQENGQRPIAFVSVVDDEIRRIIKGADAFQINFFETFLGLLEKELNTEATASEQGHHSIGNTKRYDARMEAVNFSLNHDDGVSDKNLQEADVILMGVSRSGKTPTCLYLALQYGIRAANYPLIPDDLESADLPRMVKPYRDKLFGLTIQPERLQAIRQERRPNSTYAKIDTCRSEVADAQSMFRRHGIPFANTTDKSVEELAVHILQACKLKRRFLEHHHHHH", "soluble on expression in E. coli": "soluble"}, {"sequence": "MSSPSSASESDSSQMSLLATPPVAIRRPLPYPRDIISSPLEVATPVTVSPTDFMPIRELVTTPYHISTPVLITPVDARSISREIVRVNRIRRVRTRQASRSVFNSVRRRLSMITANRTEIQMNTPQTLPRSKRIDNTSTAMEPVSSNAFQKIISEILNNSPACTETINSTIIPSNSSNCAKLREFNRLESIGIAQMAVENENEILEALDFIEWNIRLMSCESDYIDKVLEDLENEKLNKQNKWERIELILSLIQD", "soluble on expression in E. coli": "not soluble"}, {"sequence": "MSSRVANLTVIVSSKRRRVSVARFSCGKTAQLSKKQTGYYSPEIFPSTGKDCNPQPANCLKDQYVLRHCCVDDRSGKMGYSVKFLVLTRMDTETASLFHCKPCYSKMTFTIYHPLTHSFFTSCWLEHHHHHH", "soluble on expression in E. coli": "not soluble"}, {"sequence": "MSSSAAKYDVFQAIADPTRREVIRLLSDKELPISKITDHFPMSRTAVVKHLHILSEANLVSGRKSGREKIYRLHPEPLEELQQWLSYYERFWDNKLSMLKHIVENEE", "soluble on expression in E. coli": "not soluble"}, {"sequence": "MSSSGPTRSISTGTKPPTESLYKREVAQMMQQHQQQQRINNNKGYRPQGASPPKELKRRFYDDGSVTPSSRQSRNERSMDGRPSPEHGAIIGENRKSSPPAEEKYSNSGTRCKLPIPDMFRFYDKEMANEKLESLGLADEDDKKTLTKMRRHSIWMDNQLLNQLQASESNKQYLSAKKQMRDILITRIDHIDNAHKNVNSLFVHDFVHDYIILFKNKVSKSEKFLLCLKKINN", "soluble on expression in E. coli": "not soluble"}, {"sequence": "MSSSPAVKGLTDEEQKTLEPVIKTYHQFEPDPTTCTSLITQRIHAPASVVWPLIRRFDNPERYKHFVKRCRLISGDGDVGSVREVTVISGLPASTSTERLEFVDDDHRVLSFRVVGGEHRLKNYKSVTSVNEFLNQDSGKVYTVVLESYTVDIPEGNTEEDTKMFVDTVVKLNLQKLGVAATSAPMHDDE", "soluble on expression in E. coli": "soluble"}, {"sequence": "MSSSQVVRDSAKKLVNLLEKYPKDRIHHLVSFRDVQIARFRRVAGLPNVDDKGKSIKEKKPSLDEIKSIINRTSGPLGLNKEMLTKIQNKMVDEKFTEESINEQIRALSTIMNNKFRNYYDIGDKLYKPAGNPQYYQRLINAVDGKKKESLFTAMRTVLFGK", "soluble on expression in E. coli": "not soluble"}, {"sequence": "MSSTSRIMRPDDANIVGNVHGGTILKMIEEAGCIIGTRHCNTQSGDRCLAALARVERTDFLHPMFIGEVAHVSAEITYTSKHSVEVQVNVLAENIVTGAKKVTNKATLWYVPLSLQNVDKIIEVPPIEYSSPEREEAGKKRYEAQKLERLEDKVRNGEIIMSVSLPEPYTVVCSQSSLIHLVGPSDCTLHGFVHGGVTMKLMDEVAGIVAARHCKTNIVTASVDAINFHRKIKKGCVITVSGRMTFTSNKSMEI", "soluble on expression in E. coli": "soluble"}, {"sequence": "MSTAEFAQLLENSILSPDQNIRLTSETQLKKLSNDNFLQFAGLSSQVLIDENTKLEGRILAALTLKNELVSKDSVKTQQFAQRWITQVSPEAKNQIKTNALTALVSIEPRIANAAAQLIAAIADIELPHGAWPELMKIMVDNTGAEQPENVKRASLLALGYMCESADPQSQALVSSSNNILIAIVQGAQSTETSKAVRLAALNALADSLIFIKNNMEREGERNYLMQVVCEATQAEDIEVQAAAFGCLCKIMSKYYTFMKPYMEQALYALTIATMKSPNDKVASMTVEFWSTICEEEIDIAYELAQFPQSPLQSYNFALSSIKDVVPNLLNLLTRQNEDPEDDDWNVSMSAGACLQLFAQNCGNHILEPVLEFVEQNITADNWRNREAAVMAFGSIMDGPDKVQRTYYVHQALPSILNLMNDQSLQVKETTAWCIGRIADSVAESIDPQQHLPGVVQACLIGLQDHPKVATNCSWTIINLVEQLAEATPSPIYNFYPALVDGLIGAANRIDNEFNARASAFSALTTMVEYATDTVAETSASISTFVMDKLGQTMSVDENQLTLEDAQSLQELQSNILTVLAAVIRKSPSSVEPVADMLMGLFFRLLEKKDSAFIEDDVFYAISALAASLGKGFEKYLETFSPYLLKALNQVDSPVSITAVGFIADISNSLEEDFRRYSDAMMNVLAQMISNPNARRELKPAVLSVFGDIASNIGADFIPYLNDIMALCVAAQNTKPENGTLEALDYQIKVLEAVLDAYVGIVAGLHDKPEALFPYVGTIFQFIAQVAEDPQLYSEDATSRAAVGLIGDIAAMFPDGSIKQFYGQDWVIDYIKRTRSGQLFSQATKDTARWAREQQKRQLSL", "soluble on expression in E. coli": "soluble"}]}]}
